{"source": "the supplement of paper PMC11316812", "key": {"MCF7": {"test_system": "MCF7", "experiment": "percentage of EdU-negative (G0-arrested) nuclei per well, 72 h; higher = more G0 arrest", "conditions": "reference: sequence is the full UniProt precursor, the tested protein was the secreted form or ectodomain"}, "hTERT-HMEC": {"test_system": "hTERT-HMEC", "experiment": "percentage of EdU-negative (G0-arrested) nuclei per well, 72 h; higher = more G0 arrest", "conditions": "reference: sequence is the full UniProt precursor, the tested protein was the secreted form or ectodomain"}, "[1]": {"conditions": "protein concentration 0.0225 µM"}, "[2]": {"conditions": "protein concentration 0.0231125 µM"}, "[3]": {"conditions": "protein concentration 0.231125 µM"}, "[4]": {"conditions": "protein concentration 0.03125 µM"}, "[5]": {"conditions": "protein concentration 0.3125 µM"}, "[6]": {"conditions": "protein concentration 0.0197775 µM"}, "[7]": {"conditions": "protein concentration 0.197775 µM"}, "[8]": {"conditions": "protein concentration 0.0255 µM"}}, "note": "± gives the standard deviation of the averaged measurements.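 Also: secreted proteins added to cultured cells, EdU pulse at the end, nuclei found by Hoechst imaging, EdU status from nuclear versus surrounding ring intensity ratio, PBS as neutral control.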", "data": [{"sequence": "MALHIHEACILLLVIPGLVTSAAISHEDYPADEGDQISSNDNLIFDDYRGKGCVDDSGFVYKLGERFFPGHSNCPCVCALDGPVCDQPECPKIHPKCTKVEHNGCCPECKEVKNFCEYHGKNYKILEEFKPSPCEWCRCEPSNEVHCVVADCAVPECVNPVYEPEQCCPVCKNGPNCFAGTTIIPAGIEVKVDECNICHCHNGDWWKPAQCSKRECQGKQTV [B2RUY7]", "values": [{"measurement": "percentage of EdU-negative", "setting": "MCF7; [1]", "value": "26.9 ± 1.9", "unit": "%"}, {"measurement": "percentage of EdU-negative", "setting": "MCF7; protein concentration 0.225 µM", "value": "25.9 ± 1.7", "unit": "%"}, {"measurement": "percentage of EdU-negative", "setting": "hTERT-HMEC; [1]", "value": "5.12 ± 0.14", "unit": "%"}, {"measurement": "percentage of EdU-negative", "setting": "hTERT-HMEC; protein concentration 0.225 µM", "value": "5.63 ± 0.95", "unit": "%"}]}, {"sequence": "MALLFSLILAICTRPGFLASPSGVRLVGGLHRCEGRVEVEQKGQWGTVCDDGWDIKDVAVLCRELGCGAASGTPSGILYEPPAEKEQKVLIQSVSCTGTEDTLAQCEQEEVYDCSHDEDAGASCENPESSFSPVPEGVRLADGPGHCKGRVEVKHQNQWYTVCQTGWSLRAAKVVCRQLGCGRAVLTQKRCNKHAYGRKPIWLSQMSCSGREATLQDCPSGPWGKNTCNHDEDTWVECEDPFDLRLVGGDNLCSGRLEVLHKGVWGSVCDDNWGEKEDQVVCKQLGCGKSLSPSFRDRKCYGPGVGRIWLDNVRCSGEEQSLEQCQHRFWGFHDCTHQEDVAVICSG", "values": [{"measurement": "percentage of EdU-negative", "setting": "MCF7; [2]", "value": "24.9 ± 0.77", "unit": "%"}, {"measurement": "percentage of EdU-negative", "setting": "MCF7; [3]", "value": "27.1 ± 0.67", "unit": "%"}, {"measurement": "percentage of EdU-negative", "setting": "hTERT-HMEC; [2]", "value": "5.21 ± 0.98", "unit": "%"}, {"measurement": "percentage of EdU-negative", "setting": "hTERT-HMEC; [3]", "value": "5.51 ± 0.056", "unit": "%"}]}, {"sequence": "MALLPVLFLVTVLLPSLPAEGKDPAFTALLTTQLQVQREIVNKHNELRKAVSPPASNMLKMEWSREVTTNAQRWANKCTLQHSDPEDRKTSTRCGENLYMSSDPTSWSSAIQSWYDEILDFVYGVGPKSPNAVVGHYTQLVWYSTYQVGCGIAYCPNQDSLKYYYVCQYCPAGNNMNRKNTPYQQGTPCAGCPDDCDKGLCTNSCQYQDLLSNCDSLKNTAGCEHELLKEKCKATCLCENKIY", "values": [{"measurement": "percentage of EdU-negative", "setting": "MCF7; [4]", "value": "26.4 ± 1.6", "unit": "%"}, {"measurement": "percentage of EdU-negative", "setting": "MCF7; [5]", "value": "25 ± 1.1", "unit": "%"}, {"measurement": "percentage of EdU-negative", "setting": "hTERT-HMEC; [4]", "value": "5.26 ± 0.72", "unit": "%"}, {"measurement": "percentage of EdU-negative", "setting": "hTERT-HMEC; [5]", "value": "6.12 ± 1.6", "unit": "%"}]}, {"sequence": "MALLWGLLVLSWSCLQGPCSVFSPVSAMEPLGRQLTSGPNQEQVSPLTLLKLGNQEPGGQTALKSPPGVCSRDPTPEQTHRLARAMMAFTADLFSLVAQTSTCPNLILSPLSVALALSHLALGAQNHTLQRLQQVLHAGSGPCLPHLLSRLCQDLGPGAFRLAARMYLQKGFPIKEDFLEQSEQLFGAKPVSLTGKQEDDLANINQWVKEATEGKIQEFLSGLPEDTVLLLLNAIHFQGFWRNKFDPSLTQRDSFHLDEQFTVPVEMMQARTYPLRWFLLEQPEIQVAHFPFKNNMSFVVLVPTHFEWNVSQVLANLSWDTLHPPLVWERPTKVRLPKLYLKHQMDLVATLSQLGLQELFQAPDLRGISEQSLVVSGVQHQSTLELSEVGVEAAAATSIAMSRMSLSSFSVNRPFLFFIFEDTTGLPLFVGSVRNPNPSAPRELKEQQDSPGNKDFLQSLKGFPRGDKLFGPDLKLVPPMEEDYPQFGSPK", "values": [{"measurement": "percentage of EdU-negative", "setting": "MCF7; [6]", "value": "24.1 ± 0.71", "unit": "%"}, {"measurement": "percentage of EdU-negative", "setting": "MCF7; [7]", "value": "29.1 ± 1.3", "unit": "%"}, {"measurement": "percentage of EdU-negative", "setting": "hTERT-HMEC; [6]", "value": "4.44 ± 1.1", "unit": "%"}, {"measurement": "percentage of EdU-negative", "setting": "hTERT-HMEC; [7]", "value": "10.5 ± 1", "unit": "%"}]}, {"sequence": "MALPFALLMALVVLSCKSSCSLDCDLPQTHSLGHRRTMMLLAQMRRISLFSCLKDRHDFRFPQEEFDGNQFQKAEAISVLHEVIQQTFNLFSTKDSSVAWDERLLDKLYTELYQQLNDLEACVMQEVWVGGTPLMNEDSILAVRKYFQRITLYLTEKKYSPCAWEVVRAEIMRSFSSSRNLQERLRRKE", "values": [{"measurement": "percentage of EdU-negative", "setting": "MCF7; [8]", "value": "48.4 ± 2.7", "unit": "%"}, {"measurement": "percentage of EdU-negative", "setting": "MCF7; protein concentration 0.255 µM", "value": "49.64 ± 0.2", "unit": "%"}, {"measurement": "percentage of EdU-negative", "setting": "hTERT-HMEC; [8]", "value": "15.8 ± 6.2", "unit": "%"}, {"measurement": "percentage of EdU-negative", "setting": "hTERT-HMEC; protein concentration 0.255 µM", "value": "27.4 ± 0.99", "unit": "%"}]}, {"sequence": "MALPFALMMALVVLSCKSSCSLGCNLSQTHSLNNRRTLMLMAQMRRISPFSCLKDRHDFEFPQEEFDGNQFQKAQAISVLHEMMQQTFNLFSTKNSSAAWDETLLEKFYIELFQQMNDLEACVIQEVGVEETPLMNEDSILAVKKYFQRITLYLMEKKYSPCAWEVVRAEIMRSLSFSTNLQKRLRRKD", "values": [{"measurement": "percentage of EdU-negative", "setting": "MCF7; protein concentration 0.03 µM", "value": "49.17 ± 0.42", "unit": "%"}, {"measurement": "percentage of EdU-negative", "setting": "MCF7; protein concentration 0.3 µM", "value": "48.8 ± 4.3", "unit": "%"}, {"measurement": "percentage of EdU-negative", "setting": "hTERT-HMEC; protein concentration 0.03 µM", "value": "21.5 ± 5.7", "unit": "%"}, {"measurement": "percentage of EdU-negative", "setting": "hTERT-HMEC; protein concentration 0.3 µM", "value": "34.2 ± 2.4", "unit": "%"}]}, {"sequence": "MALPFVLLMALVVLNCKSICSLGCDLPQTHSLSNRRTLMIMAQMGRISPFSCLKDRHDFGFPQEEFDGNQFQKAQAISVLHEMIQQTFNLFSTKDSSATWDETLLDKFYTELYQQLNDLEACMMQEVGVEDTPLMNVDSILTVRKYFQRITLYLTEKKYSPCAWEVVRAEIMRSFSLSANLQERLRRKE", "values": [{"measurement": "percentage of EdU-negative", "setting": "MCF7; [4]", "value": "45.45 ± 0.21", "unit": "%"}, {"measurement": "percentage of EdU-negative", "setting": "MCF7; [5]", "value": "48.29 ± 0.24", "unit": "%"}, {"measurement": "percentage of EdU-negative", "setting": "hTERT-HMEC; [4]", "value": "22.9 ± 1.4", "unit": "%"}, {"measurement": "percentage of EdU-negative", "setting": "hTERT-HMEC; [5]", "value": "28.6 ± 0.61", "unit": "%"}]}]}
